# Values of other authors, collected in PMC3781210.
# Read-outs that look alike come from different tables or passages of the source.
# Tests used:
# Beclin 1 (Homo sapiens) [1] = target: Beclin 1 (Homo sapiens) (UniProt Q14457)
# Beclin 1 (Homo sapiens) [2] = target: Beclin 1 (Homo sapiens) (UniProt Q14457); remark: listed apart in the source
# Beclin 1 (Homo sapiens) [3] = target: Beclin 1 (Homo sapiens) (UniProt Q14457); remark: listed apart in the source
# Sequence of UniProt Q14457 (Q14457 150-450): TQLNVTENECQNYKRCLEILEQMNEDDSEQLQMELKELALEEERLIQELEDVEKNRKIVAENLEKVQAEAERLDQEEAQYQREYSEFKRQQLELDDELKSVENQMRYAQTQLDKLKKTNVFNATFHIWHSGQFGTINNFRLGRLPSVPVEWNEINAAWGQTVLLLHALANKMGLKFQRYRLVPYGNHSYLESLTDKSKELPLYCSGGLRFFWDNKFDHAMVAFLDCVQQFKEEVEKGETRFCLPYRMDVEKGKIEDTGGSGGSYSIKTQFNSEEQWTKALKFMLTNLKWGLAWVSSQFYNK
substance,measurement,setting,value
Bcl-2 (from UniProt P10415),Kd,Beclin 1 (Homo sapiens) [1],1700 nM
Bcl-XL (from UniProt Q07817),Kd,Beclin 1 (Homo sapiens) [2],1700 nM
vBcl-2 (from UniProt P89884),Kd,Beclin 1 (Homo sapiens) [3],40 nM
